Measurements published in patent US20100135997A1 (MEDGENE, published 2010).

biological target: T1, HLA-A*0201 loaded with the Carcinoembryonic antigen (CEA)-derived … peptide (biotin on the C-terminal biotinylation tag); assay: Biacore SPR
T1 construct: Soluble, biotinylated, immobilised on a streptavidin chip
In short: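 Surface plasmon resonance: soluble ILT-like molecule flowed at constant rate over flow cells bearing biotin-tag-captured peptide–MHC. Binding followed as RU change to derive affinity and kinetics.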

| Binder | Kd | koff |
| --- | --- | --- |
| SEQ ID NO 131 (receptor, mutated soluble two domain ILT-2; also called c132) MGHLPKPTLWAEPGSVITMDQPVTLRCQGGQETQEYRLYREKKTAPWITRIPQELVKKGQFPIPSITWEHAGRYRCYYGSDTSQWSASSDPLELVVTGVYIKPTLSAQPSPVVNSGGNVTLQCDSPFQADGFILCKEGEDEHPQCLNSQPHARGSSRAIFSVGPVSPSRRWWYRCYAYMSWSPYEWSLPSDLLELDVDG | ≤ 1000 nM | ≤ 2 s⁻¹ |
| SEQ ID NO 66 (receptor, mutated soluble two domain ILT-2) MHLPKPTLWAEPGSVITMDQPVTLRCQGGQETQEYRLYREKKTAPWITRIPQELVKKGQFPIPSITWEHAGRYRCYYGSDTSQWSASSDPLELVVTGVYIKPTLSAQPSPVVNSGGNVTLQCDSQVAFDGFILCKEGEDEHPQCLNSQPHARGSSRAIFSVGPVSPSRRWWYRCYAYDSNSPYEWSLPSDLLELDVDG | ≤ 1000 nM | ≤ 2 s⁻¹ |
| SEQ ID NO 26 (receptor, mutated soluble two domain ILT-2) MHLPKPTLWAEPGSVITLQSPVTLRCQGGQETQQYRLYREKKTAPWITRIPQELVKKGQFPIPSITWEHAGRYRCYYGSDTRQWSASSDPLELVVTGVYIKPTLSAQPSPVVNSGGNVTLQCDSQVAFDGFILCKEGEDDHPQCLNSQPHARGSSRAIFSVGPVSPSRRWRYRCYAYMNWAPYEWSLPSDLLELDVDG | ≤ 1000 nM | ≤ 2 s⁻¹ |
| SEQ ID NO 112 (receptor, mutated soluble two domain ILT-2) MHLPKPTLWAEPGSVITMDQPVTLRCQGGQETQEYRLYRERKTAPWITRIPQELVKKGQFPIPSITWEHAGRYRCYYGSDTSQWSASSDPLELVVTGVYIKPTLSAQPSPVVNSGGNVTLQCDSQVAFDGFILCKEGEDEHPQCLNSQPHARGSSRAIFSVGPVSPSRRWWYRCYAYDSNSPYEWSLPSDLLELDVDG | ≤ 1000 nM | ≤ 2 s⁻¹ |
| SEQ ID NO 49 (receptor, mutated soluble two domain ILT-2) MHLPKPTLWAEPGSVITLQSPLTLRCQGGQETQQYRLYREKKTAPWITRIPQELVKKGQFPIPSITWEHAGRYRCYYGSDTRQWSASSDPLELVVTGVYIKPTLSAQPSPVVNSGGNVTLQCDSQVAFDGFILCKEGEDDHPQCLNSQPHARGSSRAIFSVGPVSPSRRWRYRCYAYMSWSPYEWSLPSDLLELDVDG | ≤ 1000 nM | ≤ 2 s⁻¹ |
| SEQ ID NO 110 (receptor, mutated soluble two domain ILT-2) MHLPKPTLWAEPGSVITMDQPVTLRCQGGQETQEYRLYREKKTAPWITRIPQELVKKGQFPIPSITWEHAGRYRCYYGSDTSQWSASSDPLELVVTGVYIKPTLSAQPSPVVNSGGNVTLQCDSQVAFDGFILCKEGEDEHPQCLNSQPHARGSSRAIFSVGPVSPSRRWRYRCYAYDSNSPYEWSLPSDLLELDVDG | ≤ 1000 nM | ≤ 2 s⁻¹ |
| SEQ ID NO 115 (receptor, mutated soluble two domain ILT-2) MHLPKPTLWAEPGSVITLRSPVTLRCQGGQETQEYRLYREKKTAPWITRIPQELVKKGQFPIPSITWEHAGRYRCYYGSDTSQWSASSDPLELVVTGVYIKPTLSAQPSPVVNSGGNVTLQCDSQVAFDGFILCKEGEDEHPQCLNSQPHARGSSRAIFSVGPVSPSRRWWYRCYAYDSNSPYEWSLPSDLLELDVDG | ≤ 1000 nM | ≤ 2 s⁻¹ |
| SEQ ID NO 50 (receptor, mutated soluble two domain ILT-2) MHLPKPTLWAEPGSVITLQSPLTLRCQGGQETQQYRLYREKKTAPWITRIPQELVKKGQFPIPSITWEHAGRYRCYYGSDTRQWSASSDPLELVVTGVYIKPTLSAQPSPVVNSGGNVTLQCDSQVAFDGFILCKEGEDDHPQCLNSQPHARGSSRAIFSVGPVSPSRRWRYRCYAYMSWAPYEWSLPSDLLELDVDG | ≤ 1000 nM | ≤ 2 s⁻¹ |
| SEQ ID NO 25 (receptor, mutated soluble two domain ILT-2) MHLPKPTLWAEPGSVITLQSPVTLRCQGGQETQQYRLYREKKTAPWITRIPQELVKKGQFPIPSITWEHAGRYRCYYGSDTRQWSASSDPLELVVTGVYIKPTLSAQPSPVVNSGGNVTLQCDSQVAFDGFILCKEGEDDHPQCLNSQPHARGSSRAIFSVGPVSPSRRWRYRCYAYVAWAPYEWSLPSDLLELDVDG | ≤ 1000 nM | ≤ 2 s⁻¹ |

The remaining lines, values ahead:

| Kd | koff | Binder |
| --- | --- | --- |
| ≤ 1000 nM | ≤ 2 s⁻¹ | SEQ ID NO 132 (receptor, mutated soluble two domain ILT-2) MGHLPKPTLWAEPGSVITMDQPVTLRCQGGQETQEYRLYREKKTAPWITRIPQELVKKGQFPIPSITWEHAGRYRCYYGSDTSQWSASSDPLELVVTGVYIKPTLSAQPSPVVNSGGNVTLQCDSPFIAEGFILCKEGEDEHPQCLNSQPHARGSSRAIFSVGPVSPSRRWWYRCYAYMSWSPYEWSLPSDLLELDVDG |
| ≤ 1000 nM | ≤ 2 s⁻¹ | SEQ ID NO 134 (receptor, mutated soluble two domain ILT-2) MGHLPKPTLWAEPGSVITMDQPVTLRCQGGQETQEYRLYREKKTAPWITRIPQELVKKGQFPIPSITWEHAGRYRCYYGSDTSQWSASSDPLELVVTGVYIKPTLSAQPSPVVNSGGNVTLQCDSPFVSDGFILCKEGEDEHPQCLNSQPHARGSSRAIFSVGPVSPSRRWWYRCYAYMSWSPYEWSLPSDLLELDVDG |
| ≤ 1000 nM | ≤ 2 s⁻¹ | SEQ ID NO 136 (receptor, mutated soluble two domain ILT-2) MGHLPKPTLWAEPGSVITMDQPVTLRCQGGQETQEYRLYREKKTAPWITRIPQELVKKGQFPIPSITWEHAGRYRCYYGSDTSQWSASSDPLELVVTGVYIKPTLSAQPSPVVNSGGNVTLQCDSMFLVDGFILCKEGEDEHPQCLNSQPHARGSSRAIFSVGPVSPSRRWWYRCYAYMSWSPYEWSLPSDLLELDVDG |
| ≤ 1000 nM | ≤ 2 s⁻¹ | SEQ ID NO 133 (receptor, mutated soluble two domain ILT-2) MGHLPKPTLWAEPGSVITMDQPVTLRCQGGQETQEYRLYREKKTAPWITRIPQELVKKGQFPIPSITWEHAGRYRCYYGSDTSQWSASSDPLELVVTGVYIKPTLSAQPSPVVNSGGNVTLQCDSPFLSDGFILCKEGEDEHPQCLNSQPHARGSSRAIFSVGPVSPSRKWWYRCYAYMSWSPYEWSLPSDLLELDVDG |
| ≤ 1000 nM | ≤ 2 s⁻¹ | SEQ ID NO 113 (receptor, mutated soluble two domain ILT-2) MHLPKPTLWAEPGSVITLGQPVTLRCQGGQETQEYRLYREKKTAPWITRIPQELVKKGQFPIPSITWEHAGRYRCYYGSDTSQWSASSDPLELVVTGVYIKPTLSAQPSPVVNSGGNVTLQCDSQVAFDGFILCKEGEDEHPQCLNSQPHARGSSRAIFSVGPVSPSRRWWYRCYAYDSNSPYEWSLPSDLLELDVDG |
| ≤ 1000 nM | ≤ 2 s⁻¹ | SEQ ID NO 42 (receptor, mutated soluble two domain ILT-2) MHLPKPTLWAEPGSVITLQSPLTLRCQGGQETQQYRLYREKKTAPWITRIPQELVKKGQFPIPSITWEHAGRYRCYYGSDTRQWSASSDPLELVVTGVYIKPTLSAQPSPVVNSGGNVTLQCDSQVAFDGFILCKEGEDDHPQCLNSQPHARGSSRAIFSVGPVSPSRRWRYRCYAYDSNSPYEWSLPSDLLELDVDG |
| ≤ 1000 nM | ≤ 2 s⁻¹ | SEQ ID NO 111 (receptor, mutated soluble two domain ILT-2) MHLPKPTLWAEPGSVITMDQPVTLRCQGGQETQEYRLYREKKTAPWITLIPQELVKKGQFPIPSITWEHAGRYRCYYGSDTSQWSASSDPLELVVTGVYIKPTLSAQPSPVVNSGGNVTLQCDSQVAFDGFILCKEGEDGHPQCLNSQPHARGSSRAIFSVGPVSPSRRWWYWCYAYDSNSPYEWSLPSDLLELDVDG |
| ≤ 1000 nM | ≤ 2 s⁻¹ | SEQ ID NO 29 (receptor, mutated soluble two domain ILT-2) MHLPKPTLWAEPGSVITLQSPVTLRCQGGQETQQYRLYREKKTAPWITRIPQELVKKGQFPIPSITWEHAGRYRCYYGSDTRQWSASSDPLELVVTGVYIKPTLSAQPSPVVNSGGNVTLQCDSQVAFDGFILCKEGEDDHPQCLNSQPHARGSSRAIFSVGPVSPSRRWRYRCYAYMSWSPYEWSLPSDLLELDVDG |
| ≤ 1000 nM | ≤ 2 s⁻¹ | SEQ ID NO 27 (receptor, mutated soluble two domain ILT-2) MHLPKPTLWAEPGSVITLQSPVTLRCQGGQETQQYRLYREKKTAPWITRIPQELVKKGQFPIPSITWEHAGRYRCYYGSDTRQWSASSDPLELVVTGVYIKPTLSAQPSPVVNSGGNVTLQCDSQVAFDGFILCKEGEDDHPQCLNSQPHARGSSRAIFSVGPVSPSRRWRYRCYAYPAWTPYEWSLPSDLLELDVDG |
| ≤ 1000 nM | ≤ 2 s⁻¹ | SEQ ID NO 24 (receptor, mutated soluble two domain ILT-2) MHLPKPTLWAEPGSVITLQSPVTLRCQGGQETQQYRLYREKKTAPWITRIPQELVKKGQFPIPSITWEHAGRYRCYYGSDTRQWSASSDPLELVVTGVYIKPTLSAQPSPVVNSGGNVTLQCDSQVAFDGFILCKEGEDDHPQCLNSQPHARGSSRAIFSVGPVSPSRRWRYRCYAYPIWTPYEWSLPSDLLELDVDG |
| ≤ 1000 nM | ≤ 2 s⁻¹ | SEQ ID NO 28 (receptor, mutated soluble two domain ILT-2) MHLPKPTLWAEPGSVITLQSPVTLRCQGGQETQQYRLYREKKTAPWITRIPQELVKKGQFPIPSITWEHAGRYRCYYGSDTRQWSASSDPLELVVTGVYIKPTLSAQPSPVVNSGGNVTLQCDSQVAFDGFILCKEGEDDHPQCLNSQPHARGSSRAIFSVGPVSPSRRWRYRCYAYMSWAPYEWSLPSDLLELDVDG |
| ≤ 1000 nM | ≤ 2 s⁻¹ | SEQ ID NO 116 (receptor, mutated soluble two domain ILT-2) MHLPKPTLWAEPGSVITLQSPVTLRCQGGQETQEYRLYREKKTAPWITRIPQELVKKGQFPIPSITWEHAGRYRCYYGSDTSQWSASSDPLELVVTGVYIKPTLSAQPSPVVNSGGNVTLQCDSQVAFDGFILCKEGEDEHPQCLNSQPHARGSSRAIFSVGPVSPSRRWWYRCYAYDSNSPYEWSLPSDLLELDVDG |
| ≤ 1000 nM | ≤ 2 s⁻¹ | SEQ ID NO 114 (receptor, mutated soluble two domain ILT-2) MHLPKPTLWAEPGSVITLGSPVTLRCQGGQETQEYRLYREKKTAPWITRIPQELVKKGQFPIPSITWEHAGRYRCYYGSDTSQWSASSDPLELVVTGVYIKPTLSAQPSPVVNSGGNVTLQCDSQVAFDGFILCKEGEDEHPQCLNSQPHARGSSRAIFSVGPVSPSRRWWYRCYAYDSNSPYEWSLPSDLLELDVDG |
| ≤ 1000 nM | ≤ 2 s⁻¹ | SEQ ID NO 6 (receptor, mutated soluble two domain ILT-2) MHLPKPTLWAEPGSVITLQSPVTLRCQGGQETQQYRLYREKKTAPWITRIPQELVKKGQFPIPSITWEHAGRYRCYYGSDTRQWSASSDPLELVVTGVYIKPTLSAQPSPVVNSGGNVTLQCDSQVAFDGFILCKEGEDDHPQCLNSQPHARGSSRAIFSVGPVSPSRRWRYRCYAYDSNSPYEWSLPSDLLELDVDG |
